In patent US20260125477A1 (BEIJING MABWORKS BIOTECH, published 2026):

Assays:
[1] = target: T1, mouse B7-H3/CD276 protein, with His tag (mouse, UniProt Q8VE98 29-244, limits assumed); assay: SPR (Biacore T200), antibody captured on Protein A chip
T1 construct: Bought protein
T1 sequence (looked up): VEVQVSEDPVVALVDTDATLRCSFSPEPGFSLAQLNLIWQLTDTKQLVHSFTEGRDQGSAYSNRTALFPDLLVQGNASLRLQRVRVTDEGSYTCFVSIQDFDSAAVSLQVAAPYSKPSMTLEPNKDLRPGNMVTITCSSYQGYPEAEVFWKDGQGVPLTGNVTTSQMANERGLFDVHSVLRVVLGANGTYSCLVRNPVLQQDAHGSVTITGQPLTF
Description: (§1) The fully human anti-human B7-H3 antibodies were tested for their binding affinity to human B7-H3 (4Ig), human B7-H3 (2Ig), monkey B7-H3 (monkey B7-H3/CD276 protein, with His tag, Cat #: B73-C52Ha, ACROBiosystems) and mouse B7-H3 protein (mouse B7-H3/CD276 protein, with His tag, Cat #: B73-M52H4, ACROBiosystems) by surface plasmon resonance (SPR) using Biacore T200 biosensor (Biacore, US) provided with a pre-fixed Protein A sensor chip. Briefly, the anti-human B7-H3 antibodies (1 μg/mL) were injected to the Biacore T200 biosensor at 10 μL/min for 20 sec, to achieve the desired protein density (100±30 RU).
(§2) The data as generated was analyzed using Biacore Insight V2.0.1 5.12933 with the one-to-one Langmuir binding model. The association rate (kₒₙ) and dissociation rate (koff) were obtained at the same time. The affinity was calculated as the quotient of the two kinetic rate constants (KD=koff/kₒₙ).

[2] = target: T2, human B7-H4 protein, with His tag (MALS verified) (human, UniProt Q7Z7D3 29-258, limits assumed); assay: as above
T2 construct: Bought protein
T2 sequence (looked up): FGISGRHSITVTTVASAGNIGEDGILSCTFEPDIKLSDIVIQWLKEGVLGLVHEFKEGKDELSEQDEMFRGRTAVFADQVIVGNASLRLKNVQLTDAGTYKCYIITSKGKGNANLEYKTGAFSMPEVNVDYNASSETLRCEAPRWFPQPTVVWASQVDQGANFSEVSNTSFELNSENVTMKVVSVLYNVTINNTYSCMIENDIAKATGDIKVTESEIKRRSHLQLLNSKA
Description: (§3) The anti-human B7-H3 antibodies were tested for their binding capability to B7 family proteins by SPR using Biacore T200 biosensor (Biacore, US) provided with a pre-fixed Protein A sensor chip.
(§4) The dissociation was monitored for 600 sec. The data was analyzed using Biacore 8k evaluation software version 3.0, to obtain the binding responses, and the protein concentration-binding response curves were plotted, to determine the cross-reaction of the anti-human B7-H3 antibodies to the B7 family proteins.

[3] = target: T1, mouse B7-H3/CD276 protein, with His tag; assay: SPR (Biacore T200), antibody captured on Protein A chip, His-tagged antigen injected
Description: as §1, §2

[4] = target: T3, human PD-L1/B7-H1 protein, with His tag (human, UniProt Q9NZQ7 19-238); assay: SPR (Biacore T200), 6B5 captured on Protein A chip; response against concentration
T3 construct: Bought protein
Description: as §3, §4

[5] = target: T4, human B7-H2/ICOSLG protein, with His tag (human, UniProt O75144 19-258, limits assumed); assay: as above
T4 construct: Bought protein
T4 sequence (looked up): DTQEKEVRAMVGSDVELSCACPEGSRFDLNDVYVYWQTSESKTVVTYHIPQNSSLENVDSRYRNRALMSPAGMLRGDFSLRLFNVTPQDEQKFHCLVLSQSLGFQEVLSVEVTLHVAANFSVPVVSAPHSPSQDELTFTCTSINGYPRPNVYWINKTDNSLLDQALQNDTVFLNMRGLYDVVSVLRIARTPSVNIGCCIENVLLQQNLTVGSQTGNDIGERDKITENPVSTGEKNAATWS
Description: as §3, §4

[6] = target: T5, human B7-H7/HHLA2 protein, with His tag (MALS verified) (human, UniProt Q9UM44 23-344, limits assumed); assay: as above
T5 construct: Bought protein
T5 sequence (looked up): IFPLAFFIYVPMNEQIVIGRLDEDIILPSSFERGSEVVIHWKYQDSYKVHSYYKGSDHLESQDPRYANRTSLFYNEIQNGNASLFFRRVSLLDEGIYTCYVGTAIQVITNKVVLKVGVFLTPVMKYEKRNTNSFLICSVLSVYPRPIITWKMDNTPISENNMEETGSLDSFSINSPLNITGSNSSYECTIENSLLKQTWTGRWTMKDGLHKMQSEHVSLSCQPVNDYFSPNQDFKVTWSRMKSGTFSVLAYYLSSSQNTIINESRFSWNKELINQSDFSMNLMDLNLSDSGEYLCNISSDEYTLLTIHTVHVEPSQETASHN
Description: as §3, §4

[7] = target: T6, human B7-H5/Gi24/VISTA protein, with His tag (MALS verified) (human, UniProt Q9H7M9 33-194); assay: as above
T6 construct: Bought protein
T6 sequence (looked up): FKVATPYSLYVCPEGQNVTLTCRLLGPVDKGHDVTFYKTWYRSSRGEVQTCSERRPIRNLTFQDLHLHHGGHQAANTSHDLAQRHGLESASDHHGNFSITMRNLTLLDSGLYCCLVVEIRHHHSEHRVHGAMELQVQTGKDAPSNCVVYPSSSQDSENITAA
Description: as §3, §4

[8] = target: T7, human B7-2/CD86 protein, with His tag (human, UniProt P42081 26-247, limits assumed); assay: as above
T7 construct: Bought protein
T7 sequence (looked up): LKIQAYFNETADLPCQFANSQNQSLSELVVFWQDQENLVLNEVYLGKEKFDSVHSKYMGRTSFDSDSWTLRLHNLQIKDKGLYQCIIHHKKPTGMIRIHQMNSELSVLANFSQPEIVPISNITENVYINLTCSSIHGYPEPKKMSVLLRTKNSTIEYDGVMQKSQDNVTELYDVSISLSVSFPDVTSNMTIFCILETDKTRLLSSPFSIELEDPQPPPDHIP
Description: as §3, §4

T3 sequence (Q9NZQ7 19-238 limits assumed): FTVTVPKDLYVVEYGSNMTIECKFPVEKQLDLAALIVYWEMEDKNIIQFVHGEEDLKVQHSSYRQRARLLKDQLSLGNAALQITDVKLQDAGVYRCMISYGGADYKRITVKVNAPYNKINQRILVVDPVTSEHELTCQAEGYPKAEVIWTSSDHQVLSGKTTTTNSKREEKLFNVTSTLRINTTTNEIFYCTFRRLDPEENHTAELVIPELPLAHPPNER

B1: Enoblituzumab (antibody, human IgG1, kappa, V domains shown)
VH: EVQLVESGGGLVQPGGSLRLSCAASGFTFSSFGMHWVRQAPGKGLEWVAYISSDSSAIYYADTVKGRFTISRDNAKNSLYLQMNSLRDEDTAVYYCGRGRENIYYGSRLDYWGQGTTVTVSS
VL: DIQLTQSPSFLSASVGDRVTITCKASQNVDTNVAWYQQKPGKAPKALIYSASYRYSGVPSRFSGSGSGTDFTLTISSLQPEDFATYYCQQYNNYPFTFGQGTKLEIKR
notes: Humanized anti-B7-H3 antibody of MacroGenics with optimised Fc, used as the positive control; also called AbEno; enoblituzumab-IgG1-Mut
[1]
  binding result: no binding (tested: 200 nM highest antigen concentration)

B2: 10D7 (antibody, human IgG1, kappa, V domains shown)
VH: QVQLVQSGPGLVKPSETLSLTCTVSGGSISRSSYYWGWIRQPPGKGLEWIGNIFYAGSTYYNPSLKSRVTISVDTSKNQFSLKLSSVTAADTAVYYCARRITGTTGWFDPWGQGTLVTVSS
VL: DIQLTQSPSSLSASVGDRVTITCRASQGIRNDLGWYQQKPGKAPKLLIYAASTLQSGVPSRFSGSGSGTDFTLTISSLQPEDFATYYCLQDYNYPRTFGQGTKVEIKR
notes: also called 10D7-WT; Ab10D7
[2]
  binding result: no binding (tested: 200 nM)
[1]
  binding result: no binding (tested: 200 nM highest antigen concentration)

B3: 6B5 (antibody, human IgG1, kappa, V domains shown)
VH: QVQLVESGPGLVKPSQTLSLTCTVSDGSISSGGYYWSWIRQHPGKGLEWIGYIYYSGGTYYSPSLKSRVTISVDTSKNQFSLKLTSVTAADTAVYYCARRAGYSSSFDSWGQGILVTVSS
VL: EIVLTQSPLSLPVTPGEPASISCRSSQSLLYSNGYTYLDWYLQKPGQSPQFLIYLGFNRASGVPDRFSGSGSGTDFTLKISRVEAEDVGVYYCMQGLQTPYTFGQGTKLEIKR
notes: also called 6B5-WT; Ab6B5
[3]
  Kd: 274 nM
  koff: 0.0159 s⁻¹
  kon: 58300 M⁻¹ s⁻¹
[4]
  binding result: no binding (tested: 200 nM)
[5]
  binding result: no binding (tested: 200 nM)
[6]
  binding result: no binding (tested: 200 nM)
[7]
  binding result: no binding (tested: 200 nM)
[8]
  binding result: no binding (tested: 200 nM)

B4: 10F5 (antibody, human IgG1, kappa, V domains shown)
VH: QVQLVQSGAEVKKPGSSVKVSCKASGGTFSSQAISWVRQAPGQGLEWMGRIIPMLGIGDYAQSFQGRVTITADKSTSTAYLEVSSLGSEDTAVYYCAREGIAALGTNYYYGMDVWGQGTAVTVSS
VL: EIVMTQSPSSVSASVGDRVTITCRASQGISRWLAWYQQKPGKAPKLLIYVASSLQSGVPSRFSGSGSGTDFTLTISSLQPEDFATYYCQQANSFPFTFGPGTKVDIRR
notes: also called Ab10F5
[2]
  binding result: no binding (tested: 200 nM)
